Assay results from the nanobody polyreactivity screen of Harvey et al. (2022).

Assay: yeast display, Sf9 membrane polyspecificity reagent, FACS + sequencing; frameworks hold sequencing errors
In short: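 Galactose induction of a Saccharomyces cerevisiae BJ5465 synthetic nanobody display library ran 36–48 hours. The cells were then stained for 1 hour at 4 °C with 10% biotinylated, detergent-solubilized Sf9 membrane reagent, pulled down on streptavidin microbeads and FACS-sorted into low and high (top ~1%) gates on expression and reagent-binding fluorescence. Labels for polyreactivity follow the gate of origin.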

Row | Sequence | polyreactivity (PSR sort gate)
1 | QVQLVESGGGLVQAGGSLRLSCAASGLIFKYYALGWYRQAPGKERELVAAMSWSGGSTYYADSVKGRFTISRDTAKNTVYLQMNSLKPEDTAVYYCAADSWIYSYSALSIYDYWGQGTQVTVSS | high polyreactivity
2 | QVQLVESGGGLVQAGGSLRLSCAASGLIFLDYAMGWYRQAPGKERELVAAISSSGGRTYYADSVKGRFTISRDNAKNTVYLQMNSLKPEDTAVYYCATGPNSYDYWGQGTQVTVSS | high polyreactivity
3 | QVQLVESGGGLVQAGGSLRLSCAASGLIFLHNAMGWYRQAPGKERELVAAIRDGDSTNYADSVKGRFTISRDNAKNTVYLQMNSLKPEDTAVYYCAKDPTLVAYAPGRYDYWGQGTQVTVSS | low polyreactivity
4 | QVQLVESGGGLVQAGGSLRLSCAASGLIFLRNSMGLDRTAPGKERELVAAISRSGGSTYYADSVKGRFTISRDSAKYSGYLQMNSLKPVDTAVYYCAKYGYGGVIPGPDHFDYWVQGTQVTVSS | high polyreactivity
5 | QVQLVESGGGLVQAGGSLRLSCAASGLIFLSYGMGWYRQAPGKERELVAAISSGGSTYYADSVKGRFTISRDNAKNTVYLQMNSLKPEDTAVYYCAAEQPIEFDHWGQGTQVTVSS | low polyreactivity
6 | QVQLVESGGGLVQAGGSLRLSCAASGLIFLYNAMGWYRQAPGKERELVAAISSGGGRTYYADSVKGRFTISRDNAKNTVYLQMNSLKPEDTAVYYCNVASYAKKRWTMDYWGQGTQVTVSS | high polyreactivity
7 | QVQLVESGGGLVQAGGSLRLSCAASGLIFLYYVMAWYRQAPGKERELVAGISRSGGRTNYADSVKGRFTISRDNAKNTVYLQMNSLKPEDTAVYYCAALLSIGQPKPTWYYYWGQGTQVTVSS | high polyreactivity
8 | QVQLVESGGGLVQAGGSLRLSCAASGLIFNKYAMGWYRQAPGKERELVATIRRDGSTNYADSVKGRFTISRDNAKITVYLQLNILKPEDTAVYYCAADSYYTRDDYWGQGTQVTVSS | high polyreactivity
9 | QVQLVESGGGLVQAGGSLRLSCAASGLIFNTYAMGWYRQARGKERELVAAITDGGGTNYADSVKGRFTISRDNAKNTVYLQMNSLKPEDTAVYYCAARLASWPLTYDFQWYEYWGQGTQVTVSS | low polyreactivity
10 | QVQLVESGGGLVQAGGSLRLSCAASGLIFPGYAMGWYRQAPGKERELVAAIDWSGGSTYYADSVKGRFTISRDYAKNTVYLQMNSLKPEDTAVYDCNADGYLSYAFDYWGQGTQVTVSS | low polyreactivity
11 | QVQLVESGGGLVQAGGSLRLSCAASGLIFPRYAMGWYRQAPGKETELVAAISRSGGNTYYADSVKGRFTISRDNAKNTVYLQINRLKPEDTAVYYCAAYLKVRSPRDGYDYWGQGTQVSVSS | high polyreactivity
12 | QVQLVESGGGLVQAGGSLRLSCAASGLIFPSYAMGWYRQAPGKERELVAGINSGGSTNYADSVKGRFTISRDNAKNTVYLQMNSLKPEDTAVYYCAKDNNYYWYVSPRDYWGQGTQVTVSS | low polyreactivity
13 | QVQLVESGGGLVQAGGSLRLSCAASGLIFPSYTMGSYRQAPGKERELVAAITFSGDSTNYADSVKGRFTISRDNAKNTVYLQMNSLKPEDTAVYYCAAETITYGFDGDYWGQGTQVTVSS | low polyreactivity
14 | QVQLVESGGGLVQAGGSLRLSCAASGLIFQYYAMGWYRPAPGKERELVAAISSDGNTYYADSVKGRFTISRDNAKNTVYLQMNSLKPEDTAVYYCAADWYIAYSEYGYWGQGTKVTVSS | low polyreactivity
15 | QVQLVESGGGLVQAGGSLRLSCAASGLIFQYYAMGWYRQAPGKERELVAGITSGANTNYADSVKGRFTISRDNAKNTVYLQMNSLKPEDTAVYYCATYVSSPYSDIWFKDFDYWGQGTQVTVSS | low polyreactivity
16 | QVQLVESGGGLVQAGGSLRLSCAASGLIFRFNAMGWYRQAPGKERELVAAITRAGSTYYADSVKGRFTISRDNAKNTVYLQMNSLKPEDTAVYYCAAGQYRLPQRGYGYWGQGTQVTVSS | high polyreactivity

Row | Sequence | polyreactivity (PSR sort gate)
17 | QVQLVESGGGLVQAGGSLRLSCAASGLIFRGYAMGWYRQAPGKERELVAAISGSGVTTYYADSVKGRFTISRDYAKNSVYLQMNCLKPEDTAVYYCAASTRYEGNYWGQGTQVTVSS | high polyreactivity
18 | QVQLVESGGGLVQAGGSLRLSCAASGLIFRHYVMGWYRQAPGKERELVAAITSRGGTTYYADSVKGRFTISRDNAKNTVYLQMNSLKPEDTAVYYCNVVQNSRHGYTSYYWGQGTQVTVSS | high polyreactivity
19 | QVQLVESGGGLVQAGGSLRLSCAASGLIFRPYAMGWYRQAPGQERELVAAITSGGSTDYADSVKGRFTISRDNAKNTVYLQMNSLKPEDTAVYYCNADIYPPDGYPWQGDYDYWGQGTQVTVSS | low polyreactivity
20 | QVQLVESGGGLVQAGGSLRLSCAASGLIFRPYTMGWYRQAPGKERELVATISGSGASTNYADSVNGRFTISRDNAKNTVYLQMNSLKPEDTAVYYCKGRCYSRMYYWGQGTQVTVSS | high polyreactivity
21 | QVQLVESGGGLVQAGGSLRLSCAASGLIFRRNAMGWYRQAPGKERELVAAISWSGGSTYYADSVKGRFTISRDNAKNTVYLQMNSLKPEDTAVYYCNRGGFSRYYYWGHGTQVTVSS | low polyreactivity
22 | QVQLVESGGGLVQAGGSLRLSCAASGLIFRRYAMGWYRQAPGKERELVAVISSGGRTYYADSVKGRFTISRDNAKNTVFLQMNSLKPEDTAVYYCAARTRSYWGTYGSYHYDYWGQGTQVTVSS | high polyreactivity
23 | QVQLVESGGGLVQAGGSLRLSCAASGLIFRRYVMGWYRQAPGKERELVAAITSRGTRTYYADSVKGRFTISRDNAKNTVYLQMNSLKPEDTAVYYCNAQIYTYRTGRGYSRMDYWGQGTQVTVSS | high polyreactivity
24 | QVQLVESGGGLVQAGGSLRLSCAASGLIFRSNAMGWYRQAPGKERELVAAISGSGGRTYYADSVKGRFTISRDNANNTVYLQMNSLKPEDTAVYYCAGRWSYRQNGYWGQGTQVTVSS | high polyreactivity
25 | QVQLVESGGGLVQAGGSLRLSCAASGLIFRYSGMGWYRQATGKERELVAAIRWSAGSTYYADSVKGRFTISRDNAKNTVYLQMNSLKPEDTAVYYCAARAPVAGYKYRYDYWGQGTQVTVSS | high polyreactivity
26 | QVQLVESGGGLVQAGGSLRLSCAASGLIFRYYAMGWYRQAPGKERELVAAISLRGGSTYYADSVKGRFTISRDNAKNTVYLQMNSLKPEDTAVYYCAAQWAAFSVANQYGYWGQGTQVTVSS | high polyreactivity
27 | QVQLVESGGGLVQAGGSLRLSCAASGLIFRYYAMGWYSKAPGKERELVAVINYSGGRTYYADSVKGRFTISRDNAKNTVYLQMNSLKPEDTAVYYCAASFASKYEYWGQGTQVTVSS | high polyreactivity
28 | QVQLVESGGGLVQAGGSLRLSCAASGLIFRYYAMGWYSQAPGKEREFVAAISGPGASTYYADSVKGRFTISRDNAKNTVYLQMNSLKPEDTAVYYCNTLLTYGYDYWGQGTQVTVSS | high polyreactivity
29 | QVQLVESGGGLVQAGGSLRLSCAASGLIFSGYAMGWYRQAPGKERELVAAISTRGGSTFYADSVKGRFTISRDNAKNTVYLQMNSLKPEDTAVYYCAADGAGGYYYWGQGTQVTVSS | high polyreactivity
30 | QVQLVESGGGLVQAGGSLRLSCAASGLIFSKNVMGWYRQAPGKERELVAAISQRGGSTYYADSVKGRFTISRDNAKNTVYLQMNSLKPEDTAVYYCAADNTVSHEDYWGQGTQVTVSS | high polyreactivity
31 | QVQLVESGGGLVQAGGSLRLSCAASGLIFSPYAMGWYRQAPGKERELVAAITWSGGSTYYADSVKGRFTISRDNAKNTVYLQMNSLKPEDTAVYYCNAVTTRLALYDYWGQGTQVTVSS | high polyreactivity
32 | QVQLVESGGGLVQAGGSLRLSCAASGLIFSQNAMGWYRQAPGKERELVARITLSGTSTYYADSVKGRFTISRDNAKNTVYLQMNSLKPEDTAVYYCNTRSYSYYVPYRYDYWGQGTQVTVSS | high polyreactivity
